Laboratory results as given in patent publication US20220282255, “APTAMER FOR TGF-BETA1 AND USE OF SAME” (RIBOMIC INC., published 2022).
Positions count from the first letter of the chain named.

B1: SEQ ID NO: 5 (ssRNA)
RNA: GGGAUCCGCAUCUAGAGUACAUCGUGGCGGGAAAGCCGCCCCAUUCUCUCGGGUCCUAGAAACGUCUACUGAAGCUAUCA
modifications: 2'-F all pyrimidines (U,C)
B2: SEQ ID NO: 11 (ssRNA)
RNA: GGGAUCCGCAUCUAGAGUACCGCGUGAGCGGCGUCUUGCUAUGACGUAAAGAAUCGUUACAACGUCUACUGAAGCUAUCA
modifications: 2'-F all pyrimidines (U,C)
B3: SEQ ID NO: 28 (ssRNA)
RNA: GGGAAUGCACUAGUGUUCAAUAAACACUAAGUGAUCCUCCUGCAAGCUAUGAAGAACUUAACGGCUCGUAAAGCUUGCACGUCGAGUCAG
modifications: 2'-F all pyrimidines (U,C)
B4: SEQ ID NO: 18 (ssRNA)
RNA: GGGAGAACUUGGAGCUCCCCCUCGCACUUAAUGGGUUCUGUGGCUGGAGAAAGUGCGACGUCAGUC
modifications: 2'-F all pyrimidines (U,C)
B5: SEQ ID NO: 22 (ssRNA)
RNA: GGGAGAACUUGGAGCUUGACGGCGCUACAUUAUGCUCCAACGGUACUUUAUAGUGCGACGUCAGUC
modifications: 2'-F all pyrimidines (U,C)
B6: SEQ ID NO: 20 (ssRNA)
RNA: GGGAGAACUUGGAGCUGGUCCGGAAACUGGAUUCUCUCUAAAAGGGGUACCAGUGCGACGUCAGUC
modifications: 2'-F all pyrimidines (U,C)
B7: SEQ ID NO: 36 (ssRNA)
RNA: GGGAGAACUUGGAGCUCCUGAAUAAGGGAGGGGAGACUUGUGGAGGGCAAAAGUGCGACGUCAGUC
modifications: 2'-F all pyrimidines (U,C)
B8: SEQ ID NO: 38 (ssRNA)
RNA: B7 RNA with A29U, A51G
modifications: 2'-F all pyrimidines (U,C)
B9: SEQ ID NO: 35 (ssRNA)
RNA: B7 RNA with A51G
modifications: 2'-F all pyrimidines (U,C)
B10: SEQ ID NO: 37 (ssRNA)
RNA: B7 RNA with A44U, A51G
modifications: 2'-F all pyrimidines (U,C)
B11: SEQ ID NO: 19 (ssRNA)
RNA: GGGAGAACUUGGAGCUCCCCCUCGCAUUCGGAUUAAUUUGUGACUGCAUUGAGUGCGACGUCAGUC
modifications: 2'-F all pyrimidines (U,C)
B12: SEQ ID NO: 4 (ssRNA)
RNA: GGGAUCCGCAUCUAGAGUACUAAGGGUGGGGAGACUUGGGCCGGGCAGUCAGACGCGUGAAACGUCUACUGAAGCUAUCA
modifications: 2'-F all pyrimidines (U,C)

Target: T1, TGF-β1 (Homo sapiens, UniProt P01137 P01137:279-390)
Assay: SPR; ++
Conditions: tags: Recombinant Human TGF-β1, Peprotech; chain copies: 2 (homodimer, inferred)

T1 sequence (P01137 279-390, one chain of several): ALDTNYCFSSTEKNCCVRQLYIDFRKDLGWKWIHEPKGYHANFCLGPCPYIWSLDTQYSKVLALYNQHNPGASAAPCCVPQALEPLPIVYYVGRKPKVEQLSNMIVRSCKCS

Binder	binding result
B1	binds
B2	binds
B3	binds
B4	binds
B5	binds
B6	binds

Target: T1, TGF-β1
Assay: SPR; receptor-binding inhibition, 4 nM:4 nM
Conditions: tags: Recombinant Human TGF-β1, Peprotech; chain copies: 2 (homodimer, inferred)
Experimental: (§1) Measurement of Inhibitory Activity of Aptamer Against TGF-β1-2 Whether or not the nucleic acids of SEQ ID NOs: 6, 9, 19, 21, 26 inhibit the binding of TGF-β1 to the TGF-β receptor was evaluated by surface plasmon resonance method. For the measurement, Biacore T200 manufactured by GE Healthcare was used, and the measurement was performed by the method shown below. About 1500 RU of protein A was immobilized on the surface of a sensor chip of CM4 chip by using an amine coupling kit. 20 μL of Fc fusion TRII receptor (R&D) adjusted to 30 nM was injected as an analyte at a flow rate of 20 μL/min. As a result, the Fc fusion TRII receptor was immobilized on the surface of the sensor chip of the CM4 chip via protein A. Furthermore, a mixed solution of TGF-β1 (4 nM) or TGF-β1 (10 nM), and nucleic acid (30 nM) was injected. Solution A was used as the running buffer. Based on the RU value of a sample injected with TGF-β1 alone and the RU value before injection of TGF-β1, the effect of suppressing an increase in the RU value when TGF-β1 was injected in the presence of nucleic acid was calculated as the effect of inhibiting the binding of TGF-β1 to the TRII receptor.
(§2) The nucleic acids of SEQ ID NOs: 42-48 used were chemically synthesized and purified by HPLC. Whether or not these nucleic acids inhibit the binding of TGF-β1 to the TGF-β receptor was determined by injecting a mixed solution of TGF-β1 (4 nM) and nucleic acid (4 nM) in the same manner as in Example 4, and evaluating by the surface plasmon resonance method.

Binder	binding signal [% inhibition]
GGCAUAAGGGAGGGGAGACUUGUGGCGGGUAAA (ssRNA, 2'-F all pyrimidines (U,C)) [SEQ ID NO: 48]	93.5
GGCAUAAGGGAGGGGAGACUUGUGGUGGGCAAG (ssRNA, 2'-F all pyrimidines (U,C)) [SEQ ID NO: 45]	99.2
GGCAUAAGGGUGGGGAGACUUGUGGAGGGCAAG (ssRNA, 2'-F all pyrimidines (U,C)) [SEQ ID NO: 43]	99
GGCAUAAGGGCGGGGAGACUUGUGGAGGGCAAG (ssRNA, 2'-F all pyrimidines (U,C)) [SEQ ID NO: 44]	98.7
GGCAUAAGGGUGGGGAGACUUGUGGUGGGCAAG (ssRNA, 2'-F all pyrimidines (U,C)) [SEQ ID NO: 46]	99.2
GGCAUAAGGGCGGGGAGACUUGUGGUGGGCAAG (ssRNA, 2'-F all pyrimidines (U,C)) [SEQ ID NO: 47]	99.2

Target: T1, TGF-β1
Assay: cell_activity; 80 pM:20 nM
Conditions: tags: Recombinant Human TGF-β1, Peprotech; chain copies: 2 (homodimer, inferred); G4 (predicted)
Experimental: (§3) Whether the nucleic acids of SEQ ID NOs: 4-13, 17-22, 26-28 inhibit the activity of TGF-β1 was evaluated by a cell assay system that monitors Smad signaling pathway known to be activated by the stimulation of TGF-β. To be specific, photinus luciferase equipped with SBE (Smad-binding element) in the promoter region was used as a reporter (pGL4.48[luc2P/SBE/Hygro] Vector, Promega KK). Together with this SBE-induced photinus luciferase reporter plasmid, a renillaluciferase expression plasmid (pGL4.74[hRluc/TK] Vector, Promega KK) was mixed at a ratio of 20:1 as a standardized control for transfection efficiency, and transfected into HEK293 cells. The transfected HEK293 cells were re-seeded in a 96-well plate and cultured until confluent. TGF-β1 and a mixture of nucleic acid aptamers of SEQ ID NOs: 4-13, 17-22, 26-28 synthesized using T7 RNA polymerase (Y639F) were added thereto to respective final concentrations of 80 pM, 20 nM, and the cells were cultured for 3 hr. Thereafter, the expression levels of photinus luciferase and renillaluciferase were confirmed using Dual-Luciferase (registered trade mark) Reporter Assay System (Promega KK). The measurement value of photinus luciferase in each sample was corrected with the measured value of renillaluciferase, and the relative expression level of each sample was calculated by setting the ratio of photinus luciferase and renillaluciferase in a sample free of addition of TGF-β1 as 1. […] When a nucleic acid pool of 35N, 40N or 50N (SEQ ID NO: 14, 1, 23) was used as a negative control and a known TGF-β antibody (R&D, MAB1835) was used as a positive control, the same treatment and measurement were performed.
Whether or not these nucleic acids inhibit the activity of TGF-β1 was evaluated by a luciferase reporter assay similar to that in Example 4, as in Example 1.

Binder	activity [% inhibition]
B7	101
B8	100
B9	100
B10	100

Target: T1, TGF-β1
Assay: cell_activity; SBE-luciferase HEK293, 80 pM:20 nM
Conditions: tags: Recombinant Human TGF-β1, Peprotech; chain copies: 2 (homodimer, inferred)
Experimental: as §3

Binder	activity [% inhibition]
B11	91
B12	63

Target: T1, TGF-β1
Assay: SPR; receptor-binding inhibition, 4 nM:4 nM
Conditions: tags: Recombinant Human TGF-β1, Peprotech; chain copies: 2 (homodimer, inferred)
Remark: another data set of the same source
Experimental: as §1
as §2, with “42(2-1)-42(2-8)” for “42-48”, “method. Whether or not these nucleic acids inhibit the activity of TGF-β1 was evaluated by adding to the final concentrations of TGF-β1 (80 pM) and nucleic acid (312.5 pM), and by a luciferase reporter assay as in Example 4.” for “method.”

Binder	binding signal [% inhibition]
GGCAUAAGGGAGGGGAGACUUGUGGAGGGCAAG (ssRNA, 2'-OMe at A4, A11; 2'-F all pyrimidines) [SEQ ID NO: 42(2-3)]	70.7
GGCAUAAGGGAGGGGAGACUUGUGGAGGGCAAG (ssRNA, 2'-OMe at A11, A32; 2'-F all pyrimidines) [SEQ ID NO: 42(2-7)]	78.9
GGCAUAAGGGAGGGGAGACUUGUGGAGGGCAAG (ssRNA, 2'-OMe at A11, A31; 2'-F all pyrimidines) [SEQ ID NO: 42(2-6)]	81.8
GGCAUAAGGGAGGGGAGACUUGUGGAGGGCAAG (ssRNA, 2'-OMe at A11, A16; 2'-F all pyrimidines) [SEQ ID NO: 42(2-4)]	84.2
GGCAUAAGGGAGGGGAGACUUGUGGAGGGCAAG (ssRNA, 2'-OMe at G1, A11; 2'-F all pyrimidines) [SEQ ID NO: 42(2-2)]	76
GGCAUAAGGGAGGGGAGACUUGUGGAGGGCAAG (ssRNA, 2'-OMe at A11, A26; 2'-F all pyrimidines) [SEQ ID NO: 42(2-1)]	75.2
GGCAUAAGGGAGGGGAGACUUGUGGAGGGCAAG (ssRNA, 2'-OMe at A11, G17; 2'-F all pyrimidines) [SEQ ID NO: 42(2-5)]	75.6
GGCAUAAGGGAGGGGAGACUUGUGGAGGGCAAG (ssRNA, 2'-OMe at A11, G33; 2'-F all pyrimidines) [SEQ ID NO: 42(2-8)]	83

Target: T1, TGF-β1
Assay: cell_activity; 80 pM:312.5 pM
Conditions: tags: Recombinant Human TGF-β1, Peprotech; chain copies: 2 (homodimer, inferred)
Experimental: as §3
Whether or not these nucleic acids inhibit the activity of TGF-β1 was evaluated by adding to the final concentrations of TGF-β1 (80 pM) and nucleic acid (312.5 pM), and by a luciferase reporter assay as in Example 4.

Binder	activity [% inhibition]
GGCAUAAGGGAGGGGAGACUUGUGGCGGGUAAA (ssRNA, 2'-F all pyrimidines (U,C)) [SEQ ID NO: 48]	63.9
GGCAUAAGGGAGGGGAGACUUGUGGUGGGCAAG (ssRNA, 2'-F all pyrimidines (U,C)) [SEQ ID NO: 45]	65.5
GGCAUAAGGGUGGGGAGACUUGUGGAGGGCAAG (ssRNA, 2'-F all pyrimidines (U,C)) [SEQ ID NO: 43]	71.5
GGCAUAAGGGCGGGGAGACUUGUGGAGGGCAAG (ssRNA, 2'-F all pyrimidines (U,C)) [SEQ ID NO: 44]	69.4
GGCAUAAGGGUGGGGAGACUUGUGGUGGGCAAG (ssRNA, 2'-F all pyrimidines (U,C)) [SEQ ID NO: 46]	57.3
GGCAUAAGGGCGGGGAGACUUGUGGUGGGCAAG (ssRNA, 2'-F all pyrimidines (U,C)) [SEQ ID NO: 47]	70.3

Target: T1, TGF-β1
Assay: cell_activity; 80 pM:312.5 pM
Conditions: tags: Recombinant Human TGF-β1, Peprotech; chain copies: 2 (homodimer, inferred)
Remark: another data set of the same source
Experimental: as §3, with “TGF-β1 and a mixture of nucleic acid aptamers of SEQ ID NOs: 4-13, 17-22, 26-28 synthesized using T7 RNA polymerase (Y639F) were added thereto to respective final concentrations of 80 pM, 20 nM, and the cells were cultured for 3 hr.” left out
as §2, with “42(2-1)-42(2-8)” for “42-48”

Binder	activity [% inhibition]
GGCAUAAGGGAGGGGAGACUUGUGGAGGGCAAG (ssRNA, 2'-OMe at A4, A11; 2'-F all pyrimidines) [SEQ ID NO: 42(2-3)]	66
GGCAUAAGGGAGGGGAGACUUGUGGAGGGCAAG (ssRNA, 2'-OMe at A11, A32; 2'-F all pyrimidines) [SEQ ID NO: 42(2-7)]	78
GGCAUAAGGGAGGGGAGACUUGUGGAGGGCAAG (ssRNA, 2'-OMe at A11, A31; 2'-F all pyrimidines) [SEQ ID NO: 42(2-6)]	72
GGCAUAAGGGAGGGGAGACUUGUGGAGGGCAAG (ssRNA, 2'-OMe at A11, A16; 2'-F all pyrimidines) [SEQ ID NO: 42(2-4)]	64
GGCAUAAGGGAGGGGAGACUUGUGGAGGGCAAG (ssRNA, 2'-OMe at G1, A11; 2'-F all pyrimidines) [SEQ ID NO: 42(2-2)]	66
GGCAUAAGGGAGGGGAGACUUGUGGAGGGCAAG (ssRNA, 2'-OMe at A11, A26; 2'-F all pyrimidines) [SEQ ID NO: 42(2-1)]	61
GGCAUAAGGGAGGGGAGACUUGUGGAGGGCAAG (ssRNA, 2'-OMe at A11, G17; 2'-F all pyrimidines) [SEQ ID NO: 42(2-5)]	62
GGCAUAAGGGAGGGGAGACUUGUGGAGGGCAAG (ssRNA, 2'-OMe at A11, G33; 2'-F all pyrimidines) [SEQ ID NO: 42(2-8)]	72
